According to US20100107264A1:
Values joined by “and” are separate entries in the source; they are usually repeats but may differ in a detail not shown here. Equal entries are not always repeated.

Target: M144 mutant NS1A protein (L-to-A substitution at position 144) (influenza A/Udorn/72 virus) (UniProt P03495)

“GST-F2F3 (GST fusion of CPSF30 amino acids 61-121, second and third zinc fingers)” was tested, and the percent of wild-type binding (% of wild-type binding) was 5 and 10.
